Test results as given in patent US20170224620A1 (Pfizer, published 2017).
Bridges are numbered along the chain shown (N, C = ends). Primed or numbered codes have the meaning given here. Where no end group is shown, it is not given here. Side-chain parts run from the residue outwards. [ ]: non-standard residue; d: D form. Trp(5-OMe) = COc1ccc2[nH]cc(C[C@H](N)C(=O)O)c2c1; Dip = N[C@H](C(=O)O)C(c1ccccc1)c1ccccc1; Igl = N[C@H](C(=O)O)C1Cc2ccccc2C1; hPhe = N[C@@H](CCc1ccccc1)C(=O)O; Pen = CC(C)(S)[C@H](N)C(=O)O; DBCO′ = dibenzocyclooctyne; Orn = NCCC[C@H](N)C(=O)O; PEG4′ = not defined here; Pra = C#CC[C@H](N)C(=O)O; Dap = NC[C@H](N)C(=O)O

B1: P2-96 (peptide)
peptide: DPCT[Dip]EVWGRECLQ
modifications: disulfide 3-12; not fully specified (N-terminus)
notes: P2 backbone; also called P2 with Diphenylalanine at W5
B2: P2-58 (peptide)
peptide: H-GDP[Orn]TWEVWGREDLQGG[Pra]G-NH2
modifications: lactam 4-13
SMILES: C#CC[C@H](NC(=O)CNC(=O)CNC(=O)[C@H](CCC(N)=O)NC(=O)[C@H](CC(C)C)NC(=O)[C@@H]1CC(=O)NCCC[C@H](NC(=O)[C@@H]2CCCN2C(=O)[C@H](CC(=O)O)NC(=O)CN)C(=O)N[C@@H]([C@@H](C)O)C(=O)N[C@@H](Cc2c[nH]c3ccccc23)C(=O)N[C@@H](CCC(=O)O)C(=O)N[C@@H](C(C)C)C(=O)N[C@@H](Cc2c[nH]c3ccccc23)C(=O)NCC(=O)N[C@@H](CCCNC(=N)N)C(=O)N[C@@H](CCC(=O)O)C(=O)N1)C(=O)NCC(N)=O
B3: P2-65 (peptide)
peptide: H-GDPDTWEVWGRE[Orn]LQGG[Pra]G-NH2
modifications: lactam 4-13
SMILES: C#CC[C@H](NC(=O)CNC(=O)CNC(=O)[C@H](CCC(N)=O)NC(=O)[C@H](CC(C)C)NC(=O)[C@@H]1CCCNC(=O)C[C@H](NC(=O)[C@@H]2CCCN2C(=O)[C@H](CC(=O)O)NC(=O)CN)C(=O)N[C@@H]([C@@H](C)O)C(=O)N[C@@H](Cc2c[nH]c3ccccc23)C(=O)N[C@@H](CCC(=O)O)C(=O)N[C@@H](C(C)C)C(=O)N[C@@H](Cc2c[nH]c3ccccc23)C(=O)NCC(=O)N[C@@H](CCCNC(=N)N)C(=O)N[C@@H](CCC(=O)O)C(=O)N1)C(=O)NCC(N)=O
B4: P2-68 (peptide)
peptide: H-GDPETWEVWGRE[Orn]LQGG[Pra]G-NH2
modifications: lactam 4-13
SMILES: C#CC[C@H](NC(=O)CNC(=O)CNC(=O)[C@H](CCC(N)=O)NC(=O)[C@H](CC(C)C)NC(=O)[C@@H]1CCCNC(=O)CC[C@H](NC(=O)[C@@H]2CCCN2C(=O)[C@H](CC(=O)O)NC(=O)CN)C(=O)N[C@@H]([C@@H](C)O)C(=O)N[C@@H](Cc2c[nH]c3ccccc23)C(=O)N[C@@H](CCC(=O)O)C(=O)N[C@@H](C(C)C)C(=O)N[C@@H](Cc2c[nH]c3ccccc23)C(=O)NCC(=O)N[C@@H](CCCNC(=N)N)C(=O)N[C@@H](CCC(=O)O)C(=O)N1)C(=O)NCC(N)=O
B5: P2-101 (peptide)
peptide: DPCTWEVXGRECLQ
modifications: not fully specified; 5-Methoxy Tryptophan at 8; Cys3-Cys12 disulfide
notes: P2 backbone; also called P2 with 5-Methoxy Tryptophan at W8
B6: P2-94 (peptide)
peptide: DPCT[hPhe]EVWGRECLQ
modifications: disulfide 3-12; not fully specified (N-terminus)
notes: P2 backbone; also called P2 with Homophenylalanine at W5
B7: P1-1 (peptide)
peptide: Ac-SECAPLAPDWLSCILGGK(DBCO′)-NH2
modifications: disulfide 3-13
notes: also called P1 alanine scan, AA position 4
B8: P1-5 (peptide)
peptide: Ac-SECFPLAPAWLSCILGGK(DBCO′)-NH2
modifications: disulfide 3-13
notes: also called P1 alanine scan, AA position 9
B9: P1-6 (peptide)
peptide: Ac-SECFPLAPDALSCILGGK(DBCO′)-NH2
modifications: disulfide 3-13
notes: also called P1 alanine scan, AA position 10
B10: P1-4 (peptide)
peptide: Ac-SECFPLAADWLSCILGGK(DBCO′)-NH2
modifications: disulfide 3-13
notes: also called P1 alanine scan, AA position 8
B11: P1-3-1 (peptide)
peptide: Ac-AECFPAAPDWLSCILGGK(DBCO′)-NH2
modifications: disulfide 3-13
notes: also called alanine scan of flanking residues on P1-3, AA position 1
B12: P1-7 (peptide)
peptide: Ac-SECFPLAPDWASCILGGK(DBCO′)-NH2
modifications: disulfide 3-13
notes: also called P1 alanine scan, AA position 11
B13: P1-8 (peptide)
peptide: Ac-SECFPLAPDWLACILGGK(DBCO′)-NH2
modifications: disulfide 3-13
notes: also called P1 alanine scan, AA position 12
B14: P1-2 (peptide)
peptide: Ac-SECFALAPDWLSCILGGK(DBCO′)-NH2
modifications: disulfide 3-13
notes: also called P1 alanine scan, AA position 5
B15: P1-3-4 (peptide)
peptide: Ac-SECFPAAPDWLSCIAGGK(DBCO′)-NH2
modifications: disulfide 3-13
notes: also called alanine scan of flanking residues on P1-3, AA position 15
B16: 1% P2-55 nanoparticle (other)
peptide: DPXTWEVWGREXLQGGK
modifications: not fully specified; N-terminal acetyl; penicillamine at 3 and 12, disulfide; Lys17(PEG4-DBCO) clicked to azide PLA-PEG nanoparticle at 1%; C-terminal amide
notes: also called P2-55 1% Ligand Density NP
B17: 5% P2-2 nanoparticle (other)
peptide: Ac-DACTWEVWGRECLQGGK-NH2
modifications: disulfide 3-12; not fully specified (residue 17)
notes: also called P2-2 5% Ligand Density NP; alanine analog NP
B18: 5% P2-55 nanoparticle (other)
peptide: DPXTWEVWGREXLQGGK
modifications: not fully specified; N-terminal acetyl; penicillamine at 3 and 12, disulfide; Lys17(PEG4-DBCO) clicked to azide PLA-PEG nanoparticle at 5%; C-terminal amide
notes: also called P2-55 5% Ligand Density NP; Pen analog NP

Target: T1, Fc tagged recombinant human EGFR (rhEGFR-Fc, R&D systems, Cat#344-ER-050) (human, UniProt P00533 25-645)
T1 construct: Bought protein; also called apo-EGFR; not shown: Fc tag
Assay: SPR
Description: Surface plasmon resonance (SPR) binding studies were carried out on a Biacore T200 instrument (GE Healthcare). […] The contact time and resulting amount of rhEGFR-Fc capture was varied based on the nature of the analyte, namely whether it was a peptide or nanoparticle.
Peptide binding assays were carried out in 10 mM PBS buffer supplemented with 0.05% surfactant P20 and 5% DMSO by volume, at 25° C. Peptides were injected over the rhEGFR-Fc surface for 60 s, followed by dissociation (buffer injection) for 60 s and regeneration with a 10 s pulse of 3M MgCl₂. A fresh rhEGFR-Fc surface was generated for each concentration of each peptide tested. Peptide binding data was analyzed by fitting to a 1:1 Langmuir kinetic model to obtain the on-rate (kₐ), off-rate (kd) and/or equilibrium binding constant (KD) of the interaction.

KD Relative to P2 [ratio] | binding result | Binder
8.9 | – | B1
– | no binding | B2
– | no binding | H-GDPKTWEVWGREELQGG[Pra]G-NH2 (lactam 4-13) [P2-60]
– | no binding | H-GDPDTWEVWGREKLQGG[Pra]G-NH2 (lactam 4-13) [P2-64]
– | no binding | B3
– | no binding | H-GDPETWEVWGRE[Dap]LQGG[Pra]G-NH2 (lactam 4-13) [P2-69]
– | no binding | B4
– | no binding | DPCTWEVWXRECLQGGGG (free N-terminus; Sar at 9; Cys3-Cys12 disulfide; Par at 17; C-terminal amide) [P2-43]
0.5 | – | B5
– | no binding | H-GDPDTWEVWGRE[Dap]LQGG[Pra]G-NH2 (lactam 4-13) [P2-66]
– | no binding | H-GDP[Dap]TWEVWGREDLQGG[Pra]G-NH2 (lactam 4-13) [P2-59]
9.1 | – | B6

Target: T1, Fc tagged recombinant human EGFR …
Assay: EGF competition ELISA, free peptide
Description: An alanine scan was performed on the amino acids within the cyclic portion of the peptide structure to determine which amino acids were critical for binding. Each amino acid within the peptide was individually replaced with alanine. […] Subsequently, an alanine scan of the flanking amino acids on P₁₋₃ was performed.

Peptide Relative IC50 (normalized to P1) [ratio] | Binder
1.9 | B7
4.4 | B8
7.1 | B9
2.7 | B10
0.7 | B11
3.5 | B12
1 | B13
11.5 | B14
3.2 | B15

Target: EGF bound EGFR (rhEGFR-Fc with recombinant human EGF pre-injected in SPR or 50 nM EGF present in ELISA) (human) (UniProt P00533)
Assay: P2 competition ELISA, 5% nanoparticle conjugate

IC50 [µg/mL] | Rel. Diff. (against P2 NP) | Binder
3.7 | 0.62 | Ac-DACT[Igl]EV[Trp(5-OMe)]GRECLQGGK(DBCO′)-NH2 (disulfide 3-12; not fully specified) [5% P2-2/102 nanoparticle]
2.2 | 0.37 | Ac-DP[Pen]T[Igl]EV[Trp(5-OMe)]GRE[Pen]LQGGK(DBCO′)-NH2 (disulfide 3-12; not fully specified) [5% P2-55/102 nanoparticle]
1.6 | 0.27 | Ac-DA[Pen]T[Igl]EV[Trp(5-OMe)]GRE[Pen]LQGGK(DBCO′)-NH2 (disulfide 3-12; not fully specified) [5% P2-2/55/102 nanoparticle]

Target: T2, EGF bound EGFR (rhEGFR-Fc with recombinant human EGF pre-injected in SPR or 50 nM EGF present in ELISA) (human, UniProt P00533 25-645; P01133 971-1023)
T2 construct: Complex of m1 and m5 as target; also called EGFR in the presence of EGF; With EGF; not shown: Fc tag
Assay: P2 competition ELISA, 1% ligand density NP

IC50 [µg/mL] | Rel IC50 (against P2 NP) [ratio] | Binder
135 | 1.67 | B16
17 | 0.2 | Ac-DACTWEVWGRECLQGGK-NH2 (other, disulfide 3-12; not fully specified (residue 17), also called P2-2 1% Ligand Density NP) [1% P2-2 nanoparticle]
7.6 | 0.09 | Ac-DPCT[Igl]EV[Trp(5-OMe)]GRECLQGGK([PEG4′-DBCO′])-NH2 (other, disulfide 3-12; not fully specified) [1% P2-102 nanoparticle]

Target: T2, EGF bound EGFR (rhEGFR-Fc with …)
Assay: P2 competition ELISA, 5% ligand density NP

IC50 [µg/mL] | Rel IC50 (against P2 NP) [ratio] | Binder
3 | 0.7 | B17
2.6 | 0.6 | Ac-DPCT[Igl]EV[Trp(5-OMe)]GRECLQGGK([PEG4′-DBCO′])-NH2 (other, disulfide 3-12; not fully specified, also called aromatic analog NP) [5% P2-102 nanoparticle]
3.4 | 0.79 | B18

Target: T1, Fc tagged recombinant human EGFR …
Assay: screening ELISA, peptide 100 µM against 0.7 nM biotin-EGF on coated rhEGFR

% inhibition of EGF [%] | Binder
< 20 | H-NSDSECPLSH-NH2 [EGFf-1]
